By stoichiometry N is commonly meant the number of molecules, sites or subunits per partner or assembly.

The target of one experiment is CaMKIIδ-0 F368A (human). Briefly: mass photometry.
In experiment [1] the target is CaMKIIδ-0 F368A/Q407A (human). Briefly: mass photometry.
Experiment [2] has as its target CaMKIIα exon 18 with all Ser and Thr residues in exon 18 mutated to Ala (human).
The target in experiment [3] is CaMKIIα mutants with acidic exon 18 positioned proximal to the regulatory segment.
Experiment [4] deals with CaMKIIα with basified exon 18 (human).
For experiment [5], the target named is CaMKIIα with the sequence of exon 18 reversed (human).
The target in experiment [6] is CaMKIIα with acidic exon 14 (all basic residues of exon 14 mutated to acidic residues) (human).
Experiment [7] concerns the target CaMKIIδ with exon 14 only as the variable linker (human).
Experiment [8] has as its target CaMKIIβ with exon 14 only as the variable linker (human).
The target in experiment [9] is CaMKIIα with exon 18 only as the variable linker (human).
Experiment [10] deals with CaMKIIα with exon 14 only as the variable linker (human).
The target in experiment [11] is CaMKIIδ-0 F368A/L405M (human). Put plainly: mass photometry.

In the experiment with CaMKIIδ-0 F368A (human), CaMKIIδ-0 F368A (enzyme) yielded a percent of the total population as dimers at 25 nM of 20%, a percent of the total population as dimers at 100 nM of 10%, a percent of the total population as tetramers at 100 nM of 5% and a stoichiometry N of 14.

In experiment [1], CaMKIIδ-0 F368A/Q407A (enzyme) gave a percent of the population as tetradecameric holoenzyme at 100 nM of 5% and a stoichiometry N of 2.

In the case of “Calmodulin (Gallus gallus) (from UniProt P62149 1-149) (natural protein)”, the EC50 of Ca2+/CaM for kinase activity (coupled kinase assay) is 350 nM in experiment [2] and 70 nM in experiment [3]. For the same substance, the EC50 of Ca2+/CaM for kinase activity against syntide-2 (coupled kinase assay) in experiment [4] stood at 34 nM; in experiment [5] it was 41 nM; in experiment [6], 102 nM; in experiment [7] it was 20 nM; in experiment [8], 20 nM; in experiment [9] it was 193 nM. Also, in experiment [10], the EC50 of Ca2+/CaM for kinase activity against syntide-2 (coupled kinase assay) was determined as 17 nM.

Regarding CaMKIIδ-0 F368A/L405M (enzyme), in [11], the percent of the population as tetradecameric holoenzyme at 100 nM was found to be 5% and the stoichiometry N turned out to be 2.

(Values after article PMC12474881.)
